Assay results from the nanobody polyreactivity screen of Harvey et al. (2022).

Experiment: yeast display, Sf9 membrane polyspecificity reagent, FACS + sequencing; frameworks hold sequencing errors
Method in brief: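 Galactose induction of a Saccharomyces cerevisiae BJ5465 synthetic nanobody display library ran 36–48 hours. The cells were then stained for 1 hour at 4 °C with 10% biotinylated, detergent-solubilized Sf9 membrane reagent, pulled down on streptavidin microbeads and FACS-sorted into low and high (top ~1%) gates on expression and reagent-binding fluorescence. Labels for polyreactivity follow the gate of origin.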

**Q.** For “QVQLVESGGGLVQAGGSLRLSCAASGRIFKRNTMGWYRQAPGKERELVAAITRSGGSTHYADSVKGRFTISRDNAKNTVYLQMNSLKPEDTAVYYCAVRAAAIDRLAQFDYWGQGTQVTVSS”, which “polyreactivity (PSR sort gate)” value is on record?
**A.** The value was “low polyreactivity”.

**Q.** With “QVQLVESGGGLVQAGGSLRLSCAASGRIFKRYAKGWYRQAPGKERELVAAISGSGGSTSYADSVKGRFTLSRDNAKNTVYLQMNSLKPEDTAVYYCNTTPRFIRSIGQGNYWVQGTQVTVSS” as the sequence, how does the “polyreactivity (PSR sort gate)” value read?
**A.** The value was “high polyreactivity”.

**Q.** Which “polyreactivity (PSR sort gate)” value does the source give for “QVQLVESGGGLVQAGGSLRLSCAASGRIFKRYAMGWSRQAPGKDRELVATITTSGDSTYYADSVKGRFTISRDNAKNTVYLQMNSLKPEDTAVYDCAARSYRGRRYDYWGQGTQVTVSS” here?
**A.** Its value is “high polyreactivity”.

**Q.** For “QVQLVESGGGLVQAGGSLRLSCAASGRIFKSNAMGWYRQAPGKEWELVASISRSGSTNYADSVKGRFTISRDNAKNTVYLQMNSLKPEDTAVYYCAKDPDAKGGGYDYWGQGTQVTVSS”, which “polyreactivity (PSR sort gate)” value is on record?
**A.** The value was “low polyreactivity”.

**Q.** Which “polyreactivity (PSR sort gate)” value does the source give for “QVQLVESGGGLVQAGGSLRLSCAASGRIFKSYAMGWYRQAPGKERELVAAIRSGGSTYYADSVKGRFTISRDNAKYTVYLQMNSLKPEDTAVYYCNRVTRTWKVTYHYWGQGTQVTVSS” here?
**A.** The value was “high polyreactivity”.

**Q.** With “QVQLVESGGGLVQAGGSLRLSCAASGRIFKSYAMGWYRQAPGKERELVAAISRGGRTNYADSVKGRFTISRDNAKNTVYLQMNSLKPEDTAFYYCAARFVVQGHSSPYDYWGQGTQVTVSS” as the sequence, how does the “polyreactivity (PSR sort gate)” value read?
**A.** The value was “high polyreactivity”.

**Q.** With “QVQLVESGGGLVQAGGSLRLSCAASGRIFKSYAMGWYRQAPGKERELVATISISGGSTYYADSVKGRFTISRDNEKNTVYLQMNSLKPEDNAVYYCNVDFPITEYYYWGNGTQVTVSS” as the sequence, how does the “polyreactivity (PSR sort gate)” value read?
**A.** The value was “low polyreactivity”.

**Q.** With “QVQLVESGGGLVQAGGSLRLSCAASGRIFKSYAMGWYRQAPGKEWELVAAISRGGRTNYADSVKGRFTISRDNAKNTVYLHMHSLKPEDTAVYYCAAYHRDRNSGFDYWGQGTQGTVSS” as the sequence, how does the “polyreactivity (PSR sort gate)” value read?
**A.** The value was “high polyreactivity”.

**Q.** Which “polyreactivity (PSR sort gate)” value does the source give for “QVQLVESGGGLVQAGGSLRLSCAASGRIFKTYAMGWYRQAPGKERELVAAITASGGRTYDADSVKGRFTISRDNAKNTVYLQMNSLTPEDTAVYYSAAPLLRDLRSPYSYNYWGQGTQVTVSS” here?
**A.** Its value is “low polyreactivity”.

**Q.** Which “polyreactivity (PSR sort gate)” value does the source give for “QVQLVESGGGLVQAGGSLRLSCAASGRIFKTYAMGWYRQAPGKEREVVAAITAAGGRTYYADSVKGRFTISRDNAKNTVYLQMNSLKPEDTAVYYCAADSGNDYDYWGQGTQVTVSS” here?
**A.** Its value is “low polyreactivity”.

**Q.** For “QVQLVESGGGLVQAGGSLRLSCAASGRIFKVNAMVWYRQPPGKERELVAAIRWSGGSTYYADSVKGRFTISRDNAKNTVYLQMNSLKPEDTAVFYCAATWSRRFDYWGQGSQVTVSS”, which “polyreactivity (PSR sort gate)” value is on record?
**A.** Its value is “low polyreactivity”.

**Q.** Which “polyreactivity (PSR sort gate)” value does the source give for “QVQLVESGGGLVQAGGSLRLSCAASGRIFKWYAMGWSRQAPGKEREFVAGISGSAGRTYYADSVKGRFTISRDNAKNTVYLQMNSLKPEDTAVYYCAKDYNRPVEDWAKVNGYDYWGQGTQVTVSS” here?
**A.** Its value is “low polyreactivity”.

**Q.** For “QVQLVESGGGLVQAGGSLRLSCAASGRIFKYNAMGWYRQAPGKERELVAAISGTGGSTYYADSVKGRFTISRDNAKNTVYLQMNSLKPEDTAVYYCAARYYIVSLGSGYWGQGTQVTVSS”, which “polyreactivity (PSR sort gate)” value is on record?
**A.** The value was “high polyreactivity”.

**Q.** Which “polyreactivity (PSR sort gate)” value does the source give for “QVQLVESGGGLVQAGGSLRLSCAASGRIFKYNAMGWYRQAPGKERELVAAISWTGVSTHYADSVKGRFTISRDNAKNTVYLQMNSLKPEDTAVYYCAARVGRGVYYHWRDYWGQGTQVTVSS” here?
**A.** The value was “low polyreactivity”.

**Q.** For “QVQLVESGGGLVQAGGSLRLSCAASGRIFKYYAKGWYRQAPGKERELVAAITSSGVSTYADSVKGRFTISRDNAKNTVYLQMNSLKPEDTAVYYCAADYVREGLGYDYWGQGTQVTVSS”, which “polyreactivity (PSR sort gate)” value is on record?
**A.** Its value is “low polyreactivity”.

**Q.** For “QVQLVESGGGLVQAGGSLRLSCAASGRIFKYYAMGWYRQSPGKERELVAAITSSGGSTYYADSVKGRFTISRDNAKNTVYLQMNRLKPEDTAVYYCAARGPKQLYPGYIYGYWGQGTQVTVSS”, which “polyreactivity (PSR sort gate)” value is on record?
**A.** The value was “low polyreactivity”.

**Q.** Which “polyreactivity (PSR sort gate)” value does the source give for “QVQLVESGGGLVQAGGSLRLSCAASGRIFKYYARGWYRQAPGKERELVAAISGSGGTHYADSVKGRFTISRDNAKNTVYLQMNSLKPEDTAVYYCAVRWRGNGQGGSWGQGTQVTVSS” here?
**A.** The value was “high polyreactivity”.

**Q.** Which “polyreactivity (PSR sort gate)” value does the source give for “QVQLVESGGGLVQAGGSLRLSCAASGRIFKYYTLGWYRQAPGKERELVAAITSRGGTTYYADSVKGRFTISRDNAKNTVYLQMNSLKPEDTAVYDCAKKRVFRHYYYYATYDYWGQGTQVTVSS” here?
**A.** Its value is “low polyreactivity”.

**Q.** Which “polyreactivity (PSR sort gate)” value does the source give for “QVQLVESGGGLVQAGGSLRLSCAASGRIFKYYVMGWYRQAPGKERELVAAISSGSGSTYYADSVKGRFTISRDNAKNTVYLQMNSLKPEDTAVYYCNALSSWRRTYGSRYDYWGQGTQVTVSS” here?
**A.** Its value is “high polyreactivity”.

**Q.** Which “polyreactivity (PSR sort gate)” value does the source give for “QVQLVESGGGLVQAGGSLRLSCAASGRIFLANAMGWYRQAPGKERELVAAISYSGGSTYYADSVKGRFTISRDNAKNTVYLQMNSLKPEDTAVYYCAADAFTWYTGRAWKYYYWGQGTQVTVSS” here?
**A.** Its value is “low polyreactivity”.

**Q.** For “QVQLVESGGGLVQAGGSLRLSCAASGRIFLDYVMGWYRQAPGKEREVVAAISWSGDRTDYADSVKGRFTISLDNAKNTVYLQMNSLKPEDTAVYYCATTWYFAYSDDYKFDYWGQGTQVTVSS”, which “polyreactivity (PSR sort gate)” value is on record?
**A.** The value was “low polyreactivity”.

**Q.** Which “polyreactivity (PSR sort gate)” value does the source give for “QVQLVESGGGLVQAGGSLRLSCAASGRIFLGYAMGWYRQAPGKERELVAAITFSGGSTYYADSVKGRFTISRDNAKNTVYLQMNSLKPEDTAVYYCAAPRLRRTYPRNRYDYWGQGTQVTVSS” here?
**A.** Its value is “low polyreactivity”.

**Q.** With “QVQLVESGGGLVQAGGSLRLSCAASGRIFLHYAMGWYRQAPGKERELVAAISRSGGSTYYADSVKGRFTISRDNAKNTVYLQMNSLKPEDTAVYYCAAAYPFKTTEGYYYWGQGTQVTVSS” as the sequence, how does the “polyreactivity (PSR sort gate)” value read?
**A.** The value was “high polyreactivity”.

**Q.** For “QVQLVESGGGLVQAGGSLRLSCAASGRIFLKYAMGWYRQAPGKERELVAAISRRGASTYYADSVKGRFTISRDNSKNTVYLQMNSLKPEDTAVYYCKARTSSGMDYWGQGTQVTVSS”, which “polyreactivity (PSR sort gate)” value is on record?
**A.** The value was “high polyreactivity”.

**Q.** Which “polyreactivity (PSR sort gate)” value does the source give for “QVQLVESGGGLVQAGGSLRLSCAASGRIFLLNAMGWYRQAPGKERELVAAITSGGTTYYADSVKGRFTISRDNAKNTVYLQMNSLKPEDTAVYYCAAEAGYFTYGRRDYWGQGTQVTGSS” here?
**A.** The value was “low polyreactivity”.

**Q.** Which “polyreactivity (PSR sort gate)” value does the source give for “QVQLVESGGGLVQAGGSLRLSCAASGRIFLLNPMGWNRQATGKERELVARNSSGRTYYADSVKGRFTISRVNAKNTVYLHMKSLKPEDTAVYYCNATVSSSKYRYFYVNPYDYWGQGTQVTVSS” here?
**A.** The value was “low polyreactivity”.

**Q.** For “QVQLVESGGGLVQAGGSLRLSCAASGRIFLRNAMGWYRPAPGKERELVAGISSIGGITYYADSVKGRFTISRDNAKNTVYLQMNILKPEDTAVYYCAKGLYLHTSGHGPYDYWGQGTQVTVSS”, which “polyreactivity (PSR sort gate)” value is on record?
**A.** The value was “low polyreactivity”.

**Q.** For “QVQLVESGGGLVQAGGSLRLSCAASGRIFLRNVMGWYRQAPGKERELVAAISARGGSTYYADSVKGRFTISRDNGKNSVYLQMNSLKPEDTAVYYCAAGYPVSPSKYYYWGQGTQVTVSS”, which “polyreactivity (PSR sort gate)” value is on record?
**A.** Its value is “high polyreactivity”.

**Q.** Which “polyreactivity (PSR sort gate)” value does the source give for “QVQLVESGGGLVQAGGSLRLSCAASGRIFLRYAMGWYRQAPGKEREFVAAISYVGGSTYYADSVKGRFTISRDNAKNTVYLQMNILKPEDTAVYYCNADVPKSLLLYYPWGYGFWGQRTQVTVSS” here?
**A.** The value was “low polyreactivity”.

**Q.** With “QVQLVESGGGLVQAGGSLRLSCAASGRIFLTNAMGWYRQAPGKERELVAAITSGGSTYYADSVKGRFTISRDNAKNTVYLQMNSLKPEDTAVYYCNADTDRYWPYEYDYWGQGSQVTVSS” as the sequence, how does the “polyreactivity (PSR sort gate)” value read?
**A.** The value was “low polyreactivity”.

**Q.** For “QVQLVESGGGLVQAGGSLRLSCAASGRIFLVYAMGWYRQAPGKERELVAAIRSGGSTYYADSVKGRFTISRDNAKNTVYLQMNSLKPEVTAVYYCIADSPWYWVRYGVSRRDYWGQGTQVTVSS”, which “polyreactivity (PSR sort gate)” value is on record?
**A.** The value was “low polyreactivity”.
